Measurements as given in publication PMC3490968.

Target: papain (UniProt P00784)
Assay: enzyme inhibition kinetics (fluorogenic substrate, Lineweaver-Burk plot); papain 2 nM, cystatin 40, 60, 80 pM, substrate Z-Phe-Arg-7-amido-4-methylcoumarin 0.3-5 uM; 100 mM sodium phosphate pH 6.3, 10 mM EDTA, 400 mM NaCl, 2 mM dithiothreitol

Sequence of UniProt P00784 (P00784 134-345): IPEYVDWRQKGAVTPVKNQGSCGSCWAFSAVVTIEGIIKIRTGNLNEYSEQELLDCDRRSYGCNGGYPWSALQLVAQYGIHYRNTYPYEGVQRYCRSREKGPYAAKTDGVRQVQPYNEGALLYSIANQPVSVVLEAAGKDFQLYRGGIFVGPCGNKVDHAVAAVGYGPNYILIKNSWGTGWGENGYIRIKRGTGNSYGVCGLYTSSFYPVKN

Row | Ki | Substance
1 | 0.2 nM | recombinant pineapple cystatin (AcCYS), residue 1-135 (natural protein)
2 | 0.14 nM | truncated AcCYS (AcCYS_DL), residue 28-135 (domain or fragment)
